The target in experiment [1] is B7-H3 on Calu-6 cells (human) (UniProt Q5ZPR3). Put plainly: 177Lu-labelled peptide on Calu-6 cells, % cell associated fraction; C = >50%.
Experiment [2] has as its target Biotinylated human 4Ig B7-H3 (human) (UniProt Q5ZPR3). The experiment can be described thus: SPR 37C; A = KD<=1.0 nM.
Experiment [3] shares this target. The experiment can be described thus: SPR 25C; A = KD<=1.0 nM.
For another experiment, the target named is T1, B7-H3 on Calu-6 cells (human, UniProt Q5ZPR3 29-534).
T1 construct: whole, on cells
T1 sequence (looked up): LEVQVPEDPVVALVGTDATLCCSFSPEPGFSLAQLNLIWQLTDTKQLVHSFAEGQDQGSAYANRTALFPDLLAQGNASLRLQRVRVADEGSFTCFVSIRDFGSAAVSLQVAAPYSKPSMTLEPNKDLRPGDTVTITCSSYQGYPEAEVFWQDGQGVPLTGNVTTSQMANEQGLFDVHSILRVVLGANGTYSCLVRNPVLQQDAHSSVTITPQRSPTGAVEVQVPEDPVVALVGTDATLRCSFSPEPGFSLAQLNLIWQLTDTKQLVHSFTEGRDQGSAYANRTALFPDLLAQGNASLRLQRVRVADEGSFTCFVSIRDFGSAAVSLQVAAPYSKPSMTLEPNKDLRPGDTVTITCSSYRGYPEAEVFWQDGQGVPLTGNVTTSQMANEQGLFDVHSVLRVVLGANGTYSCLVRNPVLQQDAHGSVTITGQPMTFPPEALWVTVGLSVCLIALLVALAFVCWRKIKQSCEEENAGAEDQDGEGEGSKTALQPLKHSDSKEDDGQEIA
Put plainly: 177Lu-labelled peptide on Calu-6 cells, % cell associated fraction; B = 25<%<=50.

Starred links: 1 amine or outer side, 2 acyl side, 3 side chain; linkers in the order of their positions; H or OH if unused. Positions of bridges follow the written chain, without caps; N, C: chain ends. Non-standard residues stand in square brackets, D forms with d. Groups on a side chain read outwards from the residue. Primed or numbered codes have the meaning given here. *: point of attachment. Ala(piperidin-4-yl) = O=C([C@H](CC1CCN([*:3])CC1)N[*:1])[*:2]; DOTA = O=C(O)CN1CCN(CC(=O)O)CCN(CC(=O)*)CCN(CC(=O)O)CC1; Trp(5-F) = N[C@@H](Cc1c[nH]c2ccc(F)cc12)C(=O)O; PEG4′ = 4x 3-(2-aminoethoxy)propanoic acid; γGlu = O=C(O)[C@H](CCC(=O)[*:2])N[*:1]; 1Nal = N[C@@H](Cc1cccc2ccccc12)C(=O)O; Ala(4-THP) = N[C@@H](CC1CCOCC1)C(=O)O; Val(3-OH) = CC(C)(O)[C@H](N)C(=O)O; 4Pal = N[C@@H](Cc1ccncc1)C(=O)O; Tle = CC(C)(C)[C@H](N)C(=O)O; hLeu = CC(C)CC[C@H](N)C(=O)O

With Ac-[hLeu]YC[Tle]GK[Ala(4-THP)]DVYC[Trp(5-F)]F[Val(3-OH)][dK]([PEG4′-DOTA])-OH (disulfide 3-11 (inferred)) [Cpd 310], the % cell associated fraction in experiment [1] was more than 50%. The KD in experiment [2] and in experiment [3] was less than 1 nM each time.

For Ac-[hLeu]YC[Tle]GK([γGlu-DOTA])[4Pal]DVYC[1Nal]FP-NH2 (disulfide 3-11) [Cpd 252], the “% cell associated fraction” value in the experiment with B7-H3 on Calu-6 cells fell in the range of 25 to 50%. On the same count and under the same terms, for Ac-[hLeu]YCIGK(DOTA)[4Pal]DVYC[Trp(5-F)]F[Val(3-OH)]-NH2 (disulfide 3-11) [Cpd 230] the value was 25 to 50%; for Ac-[hLeu]YCIGK(DOTA)[Ala(piperidin-4-yl)]DVYC[Trp(5-F)]F[Val(3-OH)]-NH2 (disulfide 3-11) [Cpd 203], 25 to 50%.
